Results as given in IntAct's records for PubMed 17954917.

B1: Signal transducer and activator of transcription 3 (Rattus norvegicus (Rat)), P52631 (parent)
chain: MAQWNQLQQLDTRYLEQLHQLYSDSFPMELRQFLAPWIESQDWAYAASKESHATLVFHNLLGEIDQQYSRFLQESNVLYQHNLRRIKQFLQSRYLEKPMEIARIVARCLWEESRLLQTAATAAQQGGQANHPTAAVVTEKQQMLEQHLQDVRKRVQDLEQKMKVVENLQDDFDFNYKTLKSQGDMQDLNGNNQSVTRQKMQQLEQMLTALDQMRRSIVSELAGLLSAMEYVQKTLTDEELADWKRRQQIACIGGPPNICLDRLENWITSLAESQLQTRQQIKKLEELQQKVSYKGDPIVQHRPMLEERIVDLFRNLMKSAFVVERQPCMPMHPDRPLVIKTGVQFTTKVRLLVKFPELNYQLKIKVCIDKDSGDVAALRGSRKFNILGTNTKVMNMEESNNGSLSAEFKHLTLREQRCGNGGRANCDASLIVTEELHLITFETEVYHQGLKIDLETHSLPVVVISNICQMPNAWASILWYNMLTNNPKNVNFFTKPPIGTWDQVAEVLSWQFSSTTKRGLSIEQLTTLAEKLLGPGVNYSGCQITWAKFCKENMAGKGFSFWVWLDNIIDLVKKYILALWNEGYIMGFISKERERAILSTKPPGTFLLRFSESSKEGGVTFTWVEKDISGKTQIQSVEPYTKQQLNNMSFAEIIMGYKIMDATNILVSPLVYLYPDIPKEEAFGKYCRPESQEHPEADPGSAAPYLKTKFICVTPTTCSNTIDLPMSPRTLDSLMQFGNNGEGAEPSAGGQFESLTFDMDLTSECATSPM
partner: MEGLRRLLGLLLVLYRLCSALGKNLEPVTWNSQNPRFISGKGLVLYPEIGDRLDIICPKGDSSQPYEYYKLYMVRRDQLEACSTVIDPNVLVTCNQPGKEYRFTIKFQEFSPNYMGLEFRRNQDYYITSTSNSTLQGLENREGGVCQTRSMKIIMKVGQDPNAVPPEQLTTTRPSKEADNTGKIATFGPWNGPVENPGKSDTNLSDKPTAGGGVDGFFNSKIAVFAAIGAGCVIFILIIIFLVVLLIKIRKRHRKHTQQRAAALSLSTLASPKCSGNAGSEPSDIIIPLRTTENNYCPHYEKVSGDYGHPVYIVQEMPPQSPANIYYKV
B2: Ephrin-B1 (Xenopus laevis (African clawed frog)), O13097 (parent)
chain: B1 partner

Variants of: B1
Conditions: with efnb1_xenla efnb1, O13097

effect of a mutation on the interaction	Variant
disrupting interaction strength	R609L

Variants of: B2
Conditions: with stat3_rat Stat3, P52631

effect of a mutation on the interaction	Variant
decreasing interaction strength	Y296F;Y307F;Y312F
decreasing interaction strength	Y296F;Y312F
